Source: the Human Domainome abundance scans (Beltran et al. 2025)
± gives the uncertainty stated by the source.

B1: Bromodomain adjacent to zinc finger domain protein 2B, residues 1927 to 1982; numbered along this chain, Q9UIF8 (parent)
chain: KSIMKVYCQICRKGDNEELLLLCDGCDKGCHTYCHRPKITTIPDGDWFCPACIAKA

Variants of: B1
Assay: abundance fitness (aPCA) (normalised: wild type 0, dead -1); higher = more abundant; growth selection in yeast, the domain comes from the species named
Details: Homo sapiens
With T41S the abundance fitness was -0.091 ± 0.094. Work on T41N yielded an abundance fitness of -0.059 ± 0.16. G45R showed an abundance fitness of 0.023 ± 0.17. Work on G45V yielded an abundance fitness of -0.139 ± 0.23. Work on G45C yielded an abundance fitness of -0.235 ± 0.4. Variant G45K has an abundance fitness of -0.425 ± 0.41. G45S gave an abundance fitness of -0.005 ± 0.13. N16Q showed an abundance fitness of 0.01 ± 0.16. N16M gave an abundance fitness of -0.165 ± 0.16. N16I showed an abundance fitness of -0.098 ± 0.13. With N16W the abundance fitness was -0.183 ± 0.11. In the case of N16H, the abundance fitness is reported as 0 ± 0.14. With N16V the abundance fitness was -0.181 ± 0.11. In the case of N16E, the abundance fitness is reported as 0.018 ± 0.14. Variant N16A has an abundance fitness of -0.125 ± 0.096. Variant Y7F has an abundance fitness of -0.086 ± 0.17. Y7G showed an abundance fitness of -0.118 ± 0.067. With Y7P the abundance fitness was -0.179 ± 0.12. For Y7I, the abundance fitness was -0.197 ± 0.18. Variant Y7L has an abundance fitness of -0.14 ± 0.083. In the case of Y7E, the abundance fitness is reported as -0.018 ± 0.085. In the case of D15H, the abundance fitness is reported as -0.429 ± 0.2. For D15I, the abundance fitness was -0.221 ± 0.19. Variant D15W has an abundance fitness of -0.279 ± 0.12. Work on D15L yielded an abundance fitness of -0.362 ± 0.12. In the case of D15N, the abundance fitness is reported as -0.008 ± 0.17. In the case of T32H, the abundance fitness is reported as -0.111 ± 0.16. Variant T32P has an abundance fitness of -0.271 ± 0.11. In the case of T32V, the abundance fitness is reported as -0.053 ± 0.079. Work on T32A yielded an abundance fitness of -0.065 ± 0.075. T32G gave an abundance fitness of -0.118 ± 0.064. Variant T32W has an abundance fitness of -0.141 ± 0.096. For I39A, the abundance fitness was -0.068 ± 0.084. With I39M the abundance fitness was 0.039 ± 0.1. In the case of I39P, the abundance fitness is reported as -0.266 ± 0.12. With I39G the abundance fitness was -0.1 ± 0.063. For I39K, the abundance fitness was -0.111 ± 0.1. With I39H the abundance fitness was -0.189 ± 0.18. For E17K, the abundance fitness was 0.172 ± 0.18. Work on E17F yielded an abundance fitness of -0.363 ± 0.35. E17W showed an abundance fitness of -0.092 ± 0.093. Variant E17C has an abundance fitness of 0.005 ± 0.14. In the case of E17M, the abundance fitness is reported as -0.052 ± 0.14. Variant E17N has an abundance fitness of -0.139 ± 0.21. Variant C49L has an abundance fitness of -1.04 ± 0.13. C49A showed an abundance fitness of -0.82 ± 0.16. C49P showed an abundance fitness of -0.993 ± 0.16. With C49W the abundance fitness was -0.932 ± 0.1. For C49F, the abundance fitness was -1.04 ± 0.28. In the case of S2F, the abundance fitness is reported as -0.155 ± 0.22. In the case of S2T, the abundance fitness is reported as 0.019 ± 0.2. S2D gave an abundance fitness of 0.061 ± 0.16. S2K showed an abundance fitness of -0.1 ± 0.14. Variant S2W has an abundance fitness of -0.379 ± 0.14. S2A showed an abundance fitness of -0.084 ± 0.1. In the case of S2N, the abundance fitness is reported as -0.506 ± 0.32. L20P showed an abundance fitness of -0.421 ± 0.094. Variant L20W has an abundance fitness of -0.354 ± 0.14. L20N gave an abundance fitness of -0.337 ± 0.12. L20F gave an abundance fitness of 0.058 ± 0.13. L20R gave an abundance fitness of -0.318 ± 0.093. For L20Q, the abundance fitness was -0.34 ± 0.14. For L20E, the abundance fitness was -0.34 ± 0.11. Variant G29I has an abundance fitness of 0.084 ± 0.22. With G29E the abundance fitness was -0.078 ± 0.1. Work on G29P yielded an abundance fitness of -0.321 ± 0.11. G29Q showed an abundance fitness of -0.053 ± 0.11. G29W gave an abundance fitness of -0.147 ± 0.079. With G29C the abundance fitness was 0.004 ± 0.11. In the case of G29Y, the abundance fitness is reported as -0.093 ± 0.15. A56M showed an abundance fitness of -0.28 ± 0.36. With A56Q the abundance fitness was -0.176 ± 0.32. Variant A56R has an abundance fitness of 0.174 ± 0.23. A56D gave an abundance fitness of -0.019 ± 0.2. Work on A56V yielded an abundance fitness of 0.045 ± 0.18. With A56C the abundance fitness was -0.211 ± 0.23. Y33W showed an abundance fitness of -0.178 ± 0.094. Y33K showed an abundance fitness of -0.123 ± 0.1. With Y33I the abundance fitness was -0.223 ± 0.18. Y33T gave an abundance fitness of 0.089 ± 0.1. For Y33H, the abundance fitness was -0.111 ± 0.14. Variant Y33C has an abundance fitness of -0.289 ± 0.13. Y33L showed an abundance fitness of -0.202 ± 0.07. Work on Y33P yielded an abundance fitness of -0.323 ± 0.09. With K55C the abundance fitness was -0.154 ± 0.3. With G14A the abundance fitness was 0.011 ± 0.082. G14E gave an abundance fitness of -0.07 ± 0.11. Variant G14H has an abundance fitness of -0.054 ± 0.18. In the case of G14F, the abundance fitness is reported as -0.127 ± 0.19. Work on L19C yielded an abundance fitness of -0.071 ± 0.17. Work on L19F yielded an abundance fitness of -0.294 ± 0.17. Work on L19P yielded an abundance fitness of -0.08 ± 0.13. L19Y showed an abundance fitness of -0.067 ± 0.18. For W47D, the abundance fitness was -0.15 ± 0.11. With W47P the abundance fitness was -0.165 ± 0.11. W47I showed an abundance fitness of -0.092 ± 0.19. For W47Q, the abundance fitness was -0.203 ± 0.12. In the case of W47L, the abundance fitness is reported as -0.312 ± 0.083. W47V gave an abundance fitness of -0.338 ± 0.091. With I10H the abundance fitness was 0.079 ± 0.18. I10E showed an abundance fitness of 0.095 ± 0.087. Work on I10G yielded an abundance fitness of -0.148 ± 0.069. In the case of I10Q, the abundance fitness is reported as -0.009 ± 0.11. Work on I10S yielded an abundance fitness of -0.055 ± 0.078. D24H showed an abundance fitness of -0.063 ± 0.17. In the case of D24M, the abundance fitness is reported as 0.026 ± 0.13. D24R gave an abundance fitness of -0.061 ± 0.084. D24L gave an abundance fitness of -0.034 ± 0.087. With D24A the abundance fitness was 0.048 ± 0.11. For P37L, the abundance fitness was -0.177 ± 0.069. For P37H, the abundance fitness was -0.188 ± 0.11. With P37T the abundance fitness was -0.148 ± 0.099. In the case of P37E, the abundance fitness is reported as 0.026 ± 0.14. P37Y showed an abundance fitness of -0.602 ± 0.15. Variant P37N has an abundance fitness of -0.166 ± 0.13. In the case of P37W, the abundance fitness is reported as -0.31 ± 0.1. For D44M, the abundance fitness was -0.083 ± 0.12. Variant D44K has an abundance fitness of -0.235 ± 0.13. D44E showed an abundance fitness of -0.206 ± 0.1. Variant D44N has an abundance fitness of 0.111 ± 0.19. D44L showed an abundance fitness of -0.085 ± 0.087. In the case of A51L, the abundance fitness is reported as -0.045 ± 0.086. A51D gave an abundance fitness of 0.026 ± 0.12. A51Q showed an abundance fitness of -0.169 ± 0.15. For A51R, the abundance fitness was -0.087 ± 0.069. Variant A51C has an abundance fitness of -0.124 ± 0.12. For A51T, the abundance fitness was 0.016 ± 0.12. A51V showed an abundance fitness of -0.095 ± 0.094. With A51E the abundance fitness was 0.028 ± 0.11. C52K showed an abundance fitness of -0.486 ± 0.15. Work on C52L yielded an abundance fitness of -0.891 ± 0.12. With C52Y the abundance fitness was -0.666 ± 0.13. Work on C52R yielded an abundance fitness of -0.581 ± 0.069. C52M showed an abundance fitness of -0.487 ± 0.26. For C52P, the abundance fitness was -0.833 ± 0.16. With E18T the abundance fitness was -0.011 ± 0.1. Work on E18Q yielded an abundance fitness of -0.067 ± 0.1. Work on E18V yielded an abundance fitness of -0.205 ± 0.086. In the case of E18I, the abundance fitness is reported as -0.376 ± 0.18. For E18A, the abundance fitness was -0.011 ± 0.096. In the case of E18F, the abundance fitness is reported as -0.124 ± 0.12. Variant E18P has an abundance fitness of -0.183 ± 0.12. For E18W, the abundance fitness was -0.266 ± 0.12. For P50R, the abundance fitness was 0.183 ± 0.35. For P50G, the abundance fitness was -0.235 ± 0.34. For D46L, the abundance fitness was -0.233 ± 0.099. Work on D46K yielded an abundance fitness of 0.033 ± 0.13. Work on D46F yielded an abundance fitness of -0.334 ± 0.15. D46S gave an abundance fitness of -0.006 ± 0.096. D46Q showed an abundance fitness of 0.117 ± 0.14. Work on C26F yielded an abundance fitness of -0.969 ± 0.3. Variant C26Q has an abundance fitness of -0.711 ± 0.15. Variant C26A has an abundance fitness of -0.598 ± 0.11. C26T gave an abundance fitness of -0.678 ± 0.11. With C26D the abundance fitness was -0.676 ± 0.19. Work on C26H yielded an abundance fitness of -1.04 ± 0.27. Variant C26I has an abundance fitness of -0.673 ± 0.4. In the case of C26S, the abundance fitness is reported as -0.616 ± 0.089. C34L gave an abundance fitness of -0.763 ± 0.079. C34P showed an abundance fitness of -0.675 ± 0.11. Work on C34H yielded an abundance fitness of -0.216 ± 0.16. C30L gave an abundance fitness of -0.064 ± 0.068. C30G gave an abundance fitness of -0.009 ± 0.063. Work on C30P yielded an abundance fitness of -0.459 ± 0.12. In the case of C30D, the abundance fitness is reported as -0.238 ± 0.11. Work on C30N yielded an abundance fitness of -0.208 ± 0.13. With C30F the abundance fitness was -0.002 ± 0.11.
